Measurements reported in US7998940B2, “Aptamers to von Willebrand factor and their use as thrombotic disease therapeutics” (Archemix Corp., priority 2004, dated 2011).
Where two headings read alike, the source gives them in different places. Oligonucleotides are written 5' to 3', each unit as a sugar letter and its base; * is a phosphorothioate linkage, no mark a phosphodiester; rarer units and linkages stand in square brackets, end groups in braces. Plain capitals give the bases only. r = 2'-OH (RNA); f = 2'-fluoro

How the values were obtained:
[1] = test system: full length human vWF binding to lyophilized platelets; assay: Full length human von Willebrand Factor platelet binding assay (FACS); assay type: cell-based; details: 5 nM full length human vWF, lyophilized platelets, botrocetin; for Inhibition of full length hVWF binding in FACS assay, IC50 range: both bounds in nM
Description: The amount of vWF bound to fixed platelets can be measured with an antibody to vWF. The fluorescence signal from bound antibody incubated with a fluorescein conjugated secondary antibody is then detected and quantified by flow cytometry. The ability of an aptamer of the invention to block vWF binding to platelets is correlated with a reduction in fluorescence signal.
Aptamer potency to block human vWF binding to lyophilized platelets was assessed by flow cytometric analysis. Titrations of aptamers (0 nM, 0.1 nM to 1000 nM) were pre-incubated briefly with 5 nM of full length human vWF in FACS buffer (PBS plus 0.5% bovine serum albumin) at room temperature in a volume of 50 uL. Another 50 uL containing 5 uL of lyophilized platelets plus 1 uL of 0.1 U/uL of botrocetin in FACS buffer was added to aptamer/vWF. This reaction was allowed to proceed for 15 minutes at 37 degrees C. after which 200 uL of FACS buffer was added. Platelets were collected by a 6 minute spin at 1470 RCF and the supernatant was discarded. The pellets were resuspended in 100 uL of FACS buffer containing a 1:100 dilution of anti-vWF antibody and were incubated at room temperature for 30 minutes. After dilution with 200 uL of FACS buffer, the platelets were spun at 1470 RCF for 6 minutes and the supernatant was discarded. The pellets were resuspended in a 1:100 solution of anti-IgG2a-FITC antibody and were incubated in the dark for 30 minutes at room temperature. The entire 100 uL was diluted into 200 uL of FACS buffer and analyzed immediately by flow cytometric analysis in the FACSCAN. Artifactual data from contaminating debris was eliminated from the analysis by drawing a gate around the population of single and aggregated platelets. Mean fluorescent intensity (“MFI”) readings were quantified for each sample analyzed by flow cytometry. Background MFI was subtracted from all data points. Percent inhibition was reported by calculating the percent value of binding of full length human vWF to platelets in the presence of aptamer at a given concentration relative to binding in the absence of any aptamer (see FIG. 7). IC50 values were determined by fitting the percent inhibition of vWF binding to platelets as a function of aptamer concentration to the equation: % inhibition=% inhibitionmax/(1+IC50/aptamer conc.)

[2] = target: human vWF A1 domain (SEQ ID NO 5) (Homo sapiens, UniProt P04275, T1381A); assay: 3-point dot blot screen, human vWF A1 domain; assay type: binding; details: DNA SELEX 1 aptamers; 100 nM human vWF A1 domain; ratio of fraction bound with target to without
Sequence of human vWF A1 domain (SEQ ID NO 5) (P04275 with tags, fused parts or gaps T1381A): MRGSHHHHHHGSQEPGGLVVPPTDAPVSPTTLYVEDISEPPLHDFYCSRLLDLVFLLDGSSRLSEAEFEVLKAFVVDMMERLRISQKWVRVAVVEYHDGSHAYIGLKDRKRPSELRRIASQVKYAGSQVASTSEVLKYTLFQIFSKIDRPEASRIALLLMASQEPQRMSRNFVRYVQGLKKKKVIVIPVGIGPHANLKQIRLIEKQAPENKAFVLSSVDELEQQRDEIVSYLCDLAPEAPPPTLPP
Excerpt: (§1) When a significant positive ratio of binding of RNA in the presence of human or rabbit vWF A1 domain versus in the absence of protein was seen, the pools were cloned using the TOPO TA cloning kit (Invitrogen, Cat. #45-0641, Carlsbad, Calif.) according to the manufacturer's instructions. Round 9 and 12 pool templates were cloned and sequenced (125 total sequences), producing 48 unique clones. All unique clones were transcribed, desalted, 5-^32P end-labeled, and assayed in a 3-point dot blot screen (no protein target control, 100 nM human vWF A1 domain (SEQ ID NO 5, FIG. 3), or 100 nM rabbit vWF A1 domain (SEQ ID NO 6, FIG. 3). The data is presented in the third and fourth columns of Table 4 below as the ratio of the fraction of the aptamer bound to the nitrocellulose in the presence of the target protein to the fraction of aptamer bound in the absence of the target protein.
(§2) When a significant positive ratio of binding of RNA in the presence of human or rabbit vWF A1 domain (SEQ ID NOS 4 and 6, respectively) versus in the absence of protein was seen, the pools were cloned using the TOPO TA cloning kit (Invitrogen Cat. #45-0641, Carlsbad, Calif.) according to the manufacturer's instructions. Round 9 and 12 pool templates were cloned and sequenced (185 total sequences), producing 78 unique clones within 3 sequence families. All unique clones were transcribed, desalted, 5-^32P end-labeled, and assayed in a 3-point dot blot screen (no protein target control, 100 nM human vWF A1 domain (SEQ ID NO 5), or 100 nM rabbit vWF A1 domain (SEQ ID NO 6). The data are presented in the third and fourth columns of Table 9 below as the ratio of the fraction of the aptamer bound to the nitrocellulose in the presence of the target protein to the fraction of aptamer bound in the absence of the target protein. Of the three sequence families, members of Family #1 and #2 and two individual, non-family aptamers, bound to both human vWF domain A1 (SEQ ID NO 5) and rabbit vWF domain A1 (SEQ ID NO 6).
(§3) All unique clones were assayed in a 3-point dot blot screen (no protein target control, 100 nM human vWF A1 domain (SEQ ID NO 5), or 100 nM rabbit vWF A1 domain (SEQ ID NO 6). The data are presented in the third and fourth columns of Table 14 below as the ratio of the fraction of the aptamer bound to the nitrocellulose in the presence of the target protein to the fraction of aptamer bound in the absence of the target protein.

[3] = test system: rabbit vWF A1 domain (SEQ ID NO 6); assay: 3-point dot blot screen, rabbit vWF A1 domain; assay type: binding; details: DNA SELEX 1 aptamers; 100 nM rabbit vWF A1 domain; ratio of fraction bound with target to without
Sequence of rabbit vWF A1 domain (SEQ ID NO 6) (as listed by the source): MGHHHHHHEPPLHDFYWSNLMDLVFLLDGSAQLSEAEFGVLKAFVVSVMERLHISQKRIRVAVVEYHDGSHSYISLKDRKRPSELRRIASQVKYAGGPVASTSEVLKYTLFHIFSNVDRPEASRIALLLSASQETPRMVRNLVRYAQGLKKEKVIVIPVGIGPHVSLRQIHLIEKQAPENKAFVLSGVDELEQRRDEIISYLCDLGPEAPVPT
Excerpt: as §1, §2, §3
When a significant positive ratio of binding of DNA in the presence of human or rabbit vWF A1 domain versus in the absence of protein was seen, the pools were cloned using the TOPO TA cloning kit (Invitrogen Cat. #45-0641, Carlsbad, Calif.) according to the manufacturer's instructions. Round 7 and 11 pool templates were cloned and sequenced (218 total sequences), producing 146 unique clones within 12 sequence families of which sequences from six families show vWF target binding activity. All unique clones were assayed twice in a 3-point dot blot screen (no protein target control, 20 nM full length human vWF (Calbiochem Cat. #681300, La Jolla, Calif.), or 20 nM rabbit vWF A1 domain. The data is presented in the third and fourth columns of Table 17 below as the ratio of the fraction of the aptamer bound to the nitrocellulose in the presence of the target protein to the fraction of aptamer bound in the absence of the target protein.

[4] = read-out: Inhibition of full length hVWF binding in FACS assay, Average IC50
[5] = units in the cell: lower bound pM, upper bound nM, read-out: Inhibition of full length hVWF binding in FACS assay, IC50 range

## GGACCACCCUCGCAAGCAUUGAGAAAUGACUUGUGCCGCUGGUCC (rGrGrAfCfCrAfCfCfCfUfCrGfCrArArGfCrAfUfUrGrArGrArArAfUrGrAfCfUfUrGfUrGfCfCrGfCfUrGrGfUfCfC) [SEQ ID NO 172, minimized rRfY aptamer]
[1]; [4]
  IC50: 4300 pM

## GGACCACCCUCGCAAGCAUUUUAAGAAUGACUUGUGCCGCUGGUCC (rGrGrAfCfCrAfCfCfCfUfCrGfCrArArGfCrAfUfUfUfUrArArGrArAfUrGrAfCfUfUrGfUrGfCfCrGfCfUrGrGfUfCfC) [SEQ ID NO 169, minimized rRfY aptamer]
[1]; [4]
  IC50: 6900 pM
[1]; [5]
  IC50: 103 to 17000 pM

## GGAGCCACACGACATTGGCGAGAGCCACGCATGGCTCC (chemistry not given here) [SEQ ID NO 194, minimized rRdY aptamer]
[1]
  Inhibition of full length hVWF binding in FACS assay, IC50 range: no activity

## GGAGCCACACGAGAGTGGCGGGTTGTAATTACCACGCATGGCTCC (chemistry not given here) [SEQ ID NO 196, minimized rRdY aptamer]
[1]
  Inhibition of full length hVWF binding in FACS assay, IC50 range: no activity

## GGAGCGCACTCAGCCACACGACATTGGCGGGTTGTAATTACCACGCATGGCTG (chemistry not given here) [SEQ ID NO 186, minimized rRdY aptamer]
[1]; [4]
  IC50: 1300 pM
[1]; [5]
  IC50: 971 to 2200 pM

B1: AMX199.F8: DNA SELEX 1 aptamer clone (nucleic acid)
DNA: CTACCTACGATCTGACTAGCAAGGGGATTGGCTCCGGGTCTGGCGTGCTTGGCACCTCTGGCTTACTCTCATGTAGTTCC
modifications: DNA, backbone not given here
notes: DNA SELEX 1 aptamer clone
[2]
  Screen- Human/No Protein: 1.78
[3]
  Screen- Rabbit/No Protein: 1.79

B2: AMX202.A8: DNA SELEX 1 aptamer clone (nucleic acid)
DNA: CTACCTACGATCTGACTAGCAAGGGGATTGGCTCCGGGTCTGGCGTGCTCGGCACTTCCGGCTTACTCTCATGTAGTTCC
modifications: DNA, backbone not given here
notes: DNA SELEX 1 aptamer clone
[2]
  Screen- Human/No Protein: 1.27
[3]
  Screen- Rabbit/No Protein: 1.27

B3: AMX199.D8: DNA SELEX 1 aptamer clone (nucleic acid)
DNA: CTACCTACGATCTGACTAGCAAGGGGATTGGCTCCGGGTCTGGCGTGCTTGGCATCTTCGGCTTACTCTCATGTAGTTCC
modifications: DNA, backbone not given here
notes: DNA SELEX 1 aptamer clone
[2]
  Screen- Human/No Protein: 1.89
[3]
  Screen- Rabbit/No Protein: 2.00

B4: AMX200.E10: DNA SELEX 1 aptamer clone (nucleic acid)
DNA: CTACCTACGATCTGACTAGCAAGGGGATTGGCTCCGGGTCTGGCGTGCTCGGCACCTTTGGCTTACTCTCATGTAGTTCC
modifications: DNA, backbone not given here
notes: DNA SELEX 1 aptamer clone
[2]
  Screen- Human/No Protein: 1.69
[3]
  Screen- Rabbit/No Protein: 1.82

B5: AMX202.F6: DNA SELEX 1 aptamer clone (nucleic acid)
DNA: CTACCTACGATCTGACTAGCAAGGGGATTGGCTCCGGGTCTGGCGTGCTCGGCACCTTCGGCTTACTCTCATGTAGTTCC
modifications: DNA, backbone not given here
notes: DNA SELEX 1 aptamer clone
[2]
  Screen- Human/No Protein: 1.49
[3]
  Screen- Rabbit/No Protein: 1.46

B6: AMX199.B6: DNA SELEX 1 aptamer clone (nucleic acid)
DNA: CTACCTACGATCTGACTAGCAAGGGGATTGGCTCCGGGTCTGGCGTGCTTGGTACCTCCGGCTTACTCTCATGTAGTTCC
modifications: DNA, backbone not given here
notes: DNA SELEX 1 aptamer clone
[2]
  Screen- Human/No Protein: 2.01
[3]
  Screen- Rabbit/No Protein: 1.91

B7: AMX202.H10: DNA SELEX 1 aptamer clone (nucleic acid)
chain: CTACCTACGATCTGACTAGCGGAATGAGAAGGCTGGTGGATTGCTCAGGTCTGCTGGCTGCTTACTCTCATGTAGTTCC
modifications: DNA, backbone and methylation of C not given here
notes: DNA SELEX 1 aptamer clone
[2]
  Screen- Human/No Protein: 1.92
[3]
  Screen- Rabbit/No Protein: 1.76

B8: AMX202.A3: DNA SELEX 1 aptamer clone (nucleic acid)
DNA: CTACCTACGATCTGACTAGCGGAATGAGAGCGCTGATGGATTGCTCAGGTCTGCTGGCTGCTTACTCTCATGTAGTTCC
modifications: DNA, backbone not given here
notes: DNA SELEX 1 aptamer clone
[2]
  Screen- Human/No Protein: 2.28
[3]
  Screen- Rabbit/No Protein: 2.10

B9: AMX202.D6: DNA SELEX 1 aptamer clone (nucleic acid)
DNA: CTACCTACGATCTGACTAGCGGAATGAGAAGGCTGATGGATTGCTCAGGTCTGCTGGCTGCTTACTCTCATGTAGTTCC
modifications: DNA, backbone not given here
notes: DNA SELEX 1 aptamer clone
[2]
  Screen- Human/No Protein: 1.94
[3]
  Screen- Rabbit/No Protein: 1.55

B10: AMX202.B8: DNA SELEX 1 aptamer clone (nucleic acid)
DNA: CTACCTACGATCTGACTAGCGGAATGAGTATGCTGATGGATTGCTCAGGTCTGCTGGCTGCTTACTCTCATGTAGTTCC
modifications: DNA, backbone not given here
notes: DNA SELEX 1 aptamer clone
[2]
  Screen- Human/No Protein: 1.66
[3]
  Screen- Rabbit/No Protein: 1.41

B11: AMX200.A11: DNA SELEX 1 aptamer clone (nucleic acid)
DNA: CTACCTACGATCTGACTAGCTGAGTAGTTAGTAACTTTTTATTATGGTTTGGTGGGTCTGGCTTACTCTCATGTAGTTCC
modifications: DNA, backbone not given here
notes: DNA SELEX 1 aptamer clone
[2]
  Screen- Human/No Protein: 1.49
[3]
  Screen- Rabbit/No Protein: 1.19

B12: AMX200.H8: DNA SELEX 1 aptamer clone (nucleic acid)
DNA: CTACCTACGATCTGACTAGCTGAGTAGTCAGTAATTTTTTATTATGGTTTGGTGGGCCTGGCTTACTCTCATGTAGTTCC
modifications: DNA, backbone not given here
notes: DNA SELEX 1 aptamer clone
[2]
  Screen- Human/No Protein: 1.86
[3]
  Screen- Rabbit/No Protein: 1.27

B13: AMX199.F1: DNA SELEX 1 aptamer clone (nucleic acid)
DNA: CTACCTACGATCTGACTAGCGAAACACTAGGTTGGTTAGGATTGGTGTGTTCCCGCTATGCTTACTCTCATGTAGTTCC
modifications: DNA, backbone not given here
notes: DNA SELEX 1 aptamer clone
[2]
  Screen- Human/No Protein: 1.32
[3]
  Screen- Rabbit/No Protein: 1.36

B14: AMX199.G4: DNA SELEX 1 aptamer clone (nucleic acid)
DNA: CTACCTACGATCTGACTAGCGAAACACTAGGTTGGTTAGGATTGGTGTGTTCCCGCTATGCTTACTCTCATGTAGTTCC
modifications: DNA, backbone not given here
notes: DNA SELEX 1 aptamer clone
[2]
  Screen- Human/No Protein: 1.19
[3]
  Screen- Rabbit/No Protein: 1.11
